T1: Arc-mCherry (mouse), Q9WV31
T1 chain: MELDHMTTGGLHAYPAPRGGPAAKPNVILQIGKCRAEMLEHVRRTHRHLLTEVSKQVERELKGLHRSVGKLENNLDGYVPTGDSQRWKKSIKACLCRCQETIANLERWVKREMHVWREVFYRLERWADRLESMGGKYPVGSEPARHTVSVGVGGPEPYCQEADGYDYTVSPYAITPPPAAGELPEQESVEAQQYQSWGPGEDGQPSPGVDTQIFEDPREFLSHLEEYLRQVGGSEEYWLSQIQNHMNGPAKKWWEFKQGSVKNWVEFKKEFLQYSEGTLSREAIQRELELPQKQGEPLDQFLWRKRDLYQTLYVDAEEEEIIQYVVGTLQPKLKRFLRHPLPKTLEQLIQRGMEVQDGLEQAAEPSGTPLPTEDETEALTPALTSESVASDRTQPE

B1: EGFP-PICK1 (natural protein, human, UniProt Q9NRD5 1-415, looked up)
chain: MFADLDYDIEEDKLGIPTVPGKVTLQKDAQNLIGISIGGGAQYCPCLYIVQVFDNTPAALDGTVAAGDEITGVNGRSIKGKTKVEVAKMIQEVKGEVTIHYNKLQADPKQGMSLDIVLKKVKHRLVENMSSGTADALGLSRAILCNDGLVKRLEELERTAELYKGMTEHTKNLLRAFYELSQTHRAFGDVFSVIGVREPQPAASEAFVKFADAHRSIEKFGIRLLKTIKPMLTDLNTYLNKAIPDTRLTIKKYLDVKFEYLSYCLKVKEMDDEEYSCIALGEPLYRVSTGNYEYRLILRCRQEARARFSQMRKDVLEKMELLDQKHVQDIVFQLQRLVSTMSKYYNDCYAVLRDADVFPIEVDLAHTTLAYGLNQEEFTDGEEEEEEEDTAAGEPSRDTRGAAGPLDKGGSWCDS
notes: PICK1, 'a human variant of PICK1' ligated to EGFP at the N terminus; source: SH-SY5Y cells, transfected, in live cells; not shown: EGFP, N-terminal, kept
B2: GST-Arc (natural protein, mouse, UniProt Q9WV31 1-396, looked up)
chain: T1 chain
notes: Arc (activity-regulated cytoskeleton-associated protein, Arg3.1), mouse cDNA; also called Arg3.1; Activity-regulated cytoskeleton-associated protein; source: pGST.parallel 1 vector, purified (glutathione agarose resin, eluted with 50 mM glutathione; SEC when needed)

Experiments:
[1] = biological target: the molecule itself; experiment: TIRF number and brightness (N&B) analysis; live SH-SY5Y cells, plasma membrane; brightness normalised to monomeric EGFP or mCherry; alone or co-transfected
[2] = biological target: T1, Arc-mCherry (mouse), Q9WV31; experiment: photon counting histogram (PCH) brightness analysis; live SH-SY5Y cells, cytosol; brightness normalised to monomeric EGFP or mCherry; co-transfected with the other construct or with the free fluorescent protein; 20 to 1,500 nM; conditions: remark: other sources report otherwise
His-PICK1 = biological target: T2, His-PICK1 (human, UniProt Q9NRD5 1-415); experiment: pull-down; soluble His-PICK1 (1, 5 and 10 µM) with GST-Arc (1 µM) or GST (1 µM) bound to glutathione-agarose, or resin alone; 20 mM HEPES pH 7.5, 100 mM NaCl, 1 mM DTT, 1 h at 4 °C; bound PICK1 from SDS-PAGE and BCA assay; conditions: both partners purified
T2 construct: also called recombinant His-PICK1; source: E. coli BL21-Codon(+) DE3, pQE-80L, purified (HisTrap; SEC when needed)

[3] = biological target: T1, Arc-mCherry (mouse), Q9WV31; experiment: TIRF number and brightness (N&B) analysis; live SH-SY5Y cells, plasma membrane; brightness normalised to monomeric EGFP or mCherry; alone or co-transfected; conditions: remark: other sources report otherwise

Binder	stoichiometry N [1]	normalized brightness (Norm. ε) [2]	binding result (His-PICK1)	stoichiometry N [3]
B1	2	–	–	–
B2	–	1.37	binds	2

From PMC6168463, “Arc/Arg3.1 has an activity-regulated interaction with PICK1 that results in altered spatial dynamics” (Scientific Reports, 2018)
